Results on four molecules are retold here after patent US20220249611A1 (Stanford University, published 2022).

HA tag and linker = not defined here

Test [1] addresses FGFRs expressed on NIH3T3 cells. Put plainly: equilibrium binding titration on NIH3T3 cells at 4 C, flow cytometry with anti-His antibody. For orientation: A flow cytometer gives signals particle by particle.
For test [2] the target is unchanged. Put plainly: cell-based or functional assay.
The target of test [3] is T1, human FGFR1 beta (IIIc)-Fc (R&D Systems) (human, UniProt P11362-14 22-285, limits assumed).
T1 construct: Bought reagent; also called FGFR1-Fc; Fc fusion of FGFR1; not shown: Fc domain (detected with anti-human IgG)
T1 sequence (looked up): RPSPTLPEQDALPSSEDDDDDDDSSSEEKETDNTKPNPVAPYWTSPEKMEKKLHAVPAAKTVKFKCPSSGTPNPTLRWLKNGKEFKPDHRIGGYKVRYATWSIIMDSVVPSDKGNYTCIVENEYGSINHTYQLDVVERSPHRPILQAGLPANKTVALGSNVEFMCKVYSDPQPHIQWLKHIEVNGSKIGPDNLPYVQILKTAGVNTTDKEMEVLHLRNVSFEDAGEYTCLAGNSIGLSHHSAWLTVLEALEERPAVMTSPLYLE
Put plainly: flow cytometry, yeast-displayed peptide with soluble FGFR1-Fc. As for the experimental part:
FIG. 15. Non-binding of peptide artifacts to FGFR1-Fc. Yeast cells expressing RTTTS or HTTS peptides on their cell surface were incubated with 10 nM FGFRT-Fc. Cells were stained with fluorescent antibodies for expression (α-c-myc) and binding (α-FGFR1-Fc).
50,000 induced yeast cells were incubated with various concentrations of FGFR1-Fc in phosphate-buffered saline with 1 g/L BSA (PBSA) at room temperature. Cells were incubated in sufficiently large volumes to avoid ligand depletion and long enough times (typically 3 to 24 hours) to reach equilibrium. During the last 30 minutes of incubation, yeast cells were incubated with 1:2500 dilution of chicken anti-c-Myc (Invitrogen) in PBSA. Yeast were pelleted, washed, then incubated with 1:200 dilution of secondary antibodies on ice for 10 min: anti-Human IgG-FITC (Sigma Aldrich) against FGFR1-Fc and anti-chicken-IgY-PE (Santa Cruz Biotechnology) against anti-c-myc. Yeast were washed, pelleted, and resuspended in PBSA immediately before analysis by flow cytometry using EMD Millipore Guava EasyCyte. Flow cytometry data were analyzed using FlowJo (v7.6.1). Binding curves were plotted and Kd values were obtained using GraphPad Prism 6.

For orientation: Kd means the concentration at which binding is half-saturated. In test [1], “recombinant soluble FGF1 L131R mutant with N-terminal 6x His tag (E. coli, pBAD/His B) (from UniProt P05230 16-155) (ligand)” yielded a Kd of 10 nM. The molecule further came in with an inhibition of ERK phosphorylation induced by 1 nM wild type FGF1 in NIH3T3 cells (Western blot against phosphoERK), IC50 in test [2] of 1 nM.

Take “recombinant soluble wild-type FGF1 with N-terminal 6x His tag (E. coli, pBAD/His B) (from UniProt P05230 16-155) (ligand)”: the Kd in test [1] was determined as 10 nM.

B1: yeast-displayed peptide artifact RTTTS (peptide)
chain: {Aga2p-HA tag and linker}-RTTTS-{c‑myc tag}
modifications: reading uncertain
notes: not shown: Aga2p of S. cerevisiae, yeast display fusion partner (pCT vector); HA tag and vector linker; C-terminal c-myc tag
On to B1, for which the binding result in test [3] is reported as “no binding (tested: 10 nM)”.

B2: yeast-displayed peptide artifact HTTS (peptide)
chain: {Aga2p-HA tag and linker}-HTTS-{c‑myc tag}
modifications: reading uncertain
notes: as for B1
On to B2, for which the binding result in test [3] is “no binding (tested: 10 nM)”.
